Test results as given in paper doi:10.1101/2025.06.13.659598.

Target: nesprin-2G SR11-13 (spectrin repeats 11-13 of human nesprin-2) (human)
Assay: co-sedimentation

Chain of FHOD1 wild-type, full length (Q9Y613 whole entry): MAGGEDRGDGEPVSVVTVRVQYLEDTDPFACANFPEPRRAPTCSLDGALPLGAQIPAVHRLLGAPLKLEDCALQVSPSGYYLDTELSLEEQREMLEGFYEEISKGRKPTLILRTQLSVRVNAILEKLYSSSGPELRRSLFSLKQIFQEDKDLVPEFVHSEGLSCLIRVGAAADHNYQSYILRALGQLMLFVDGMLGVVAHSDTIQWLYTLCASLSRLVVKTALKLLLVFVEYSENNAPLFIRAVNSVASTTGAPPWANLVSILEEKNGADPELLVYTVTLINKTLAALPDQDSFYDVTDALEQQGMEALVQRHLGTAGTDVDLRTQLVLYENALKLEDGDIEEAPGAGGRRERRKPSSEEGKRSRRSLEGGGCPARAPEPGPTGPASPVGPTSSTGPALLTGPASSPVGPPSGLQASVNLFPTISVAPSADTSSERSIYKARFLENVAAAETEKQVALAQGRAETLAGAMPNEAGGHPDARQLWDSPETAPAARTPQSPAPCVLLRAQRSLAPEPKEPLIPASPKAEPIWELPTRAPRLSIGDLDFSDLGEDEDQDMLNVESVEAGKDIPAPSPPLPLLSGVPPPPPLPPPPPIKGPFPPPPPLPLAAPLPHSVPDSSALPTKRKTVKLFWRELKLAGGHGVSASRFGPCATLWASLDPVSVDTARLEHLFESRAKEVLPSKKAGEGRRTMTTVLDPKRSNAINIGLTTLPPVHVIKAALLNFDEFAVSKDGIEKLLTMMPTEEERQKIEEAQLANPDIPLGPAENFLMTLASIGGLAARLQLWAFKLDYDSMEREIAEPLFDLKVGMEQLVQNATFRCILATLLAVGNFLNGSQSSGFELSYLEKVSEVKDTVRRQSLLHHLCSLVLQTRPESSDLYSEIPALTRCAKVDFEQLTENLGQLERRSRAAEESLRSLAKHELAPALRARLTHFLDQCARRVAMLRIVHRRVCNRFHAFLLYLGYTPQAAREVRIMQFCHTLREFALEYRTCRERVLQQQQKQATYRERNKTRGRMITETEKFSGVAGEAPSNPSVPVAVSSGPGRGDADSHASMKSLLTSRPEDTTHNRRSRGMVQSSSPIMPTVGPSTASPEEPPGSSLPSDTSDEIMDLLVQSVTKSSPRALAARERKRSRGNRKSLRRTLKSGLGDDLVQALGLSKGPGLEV

Substance | stoichiometry N (scale: FHOD1 WT per SR11-13) | stoichiometry N (scale: FHOD3 WT per SR11-13)
FHOD1 wild-type, full length (from UniProt Q9Y613 1-1164) (natural protein) | 1.18 | 
FHOD3 wild-type (from UniProt Q2V2M9 1-1422) (natural protein) |  | 1.3
